Assay results: PMC2192576 (1996)

Assays:
[1] = biological target: T1, influenza virus (A/PR/8/34) HA (hemagglutinin) peptide on HLA-DRA*01:01 / HLA-DRB1*07:01 (human); assay: cytokine release
T1 peptide: PKYVKQNTLKLAT

[2] = biological target: T2, influenza virus (A/PR/8/34) HA (hemagglutinin) peptide on HLA-DRA*01:01 / HLA-DRB1*04:01 (human); assay: cytokine release
T2 peptide: PKYVKQNTLKLAT

Row | Binder | binding result [1] | binding result [2]
1 | JS515.11 TCR (TCR, V domains shown) Valpha: QSVTQLGSHVSVSEGALVLLRCNYSSSVPPYLFWYVQYPNQGLQLLLKYTTGATLVKGINGFEAEFKKSETSFHLTKPSAHMSDAAEYFCAVSEGGGSEKLVFGKGTKLTVNP Vbeta: DVKVTQSSRYLVKRTGEKVFLECVQDMDHENMFWYRQDPGLGLRLIYFSYDVEMKEKGDIPEGYSVSREKKERFSLILESASTNQTSMYLCASSPGTSGTTYEQYFGPGTRLTVT | recognises | recognises
2 | JS515.11 TCR with Thr-51 substituted with Ser in CDR2 of the alpha chain (TCR, V domains shown) Valpha: QSVTQLGSHVSVSEGALVLLRCNYSSSVPPYLFWYVQYPNQGLQLLLKYTSGATLVKGINGFEAEFKKSETSFHLTKPSAHMSDAAEYFCAVSEGGGSEKLVFGKGTKLTVNP Vbeta: DVKVTQSSRYLVKRTGEKVFLECVQDMDHENMFWYRQDPGLGLRLIYFSYDVEMKEKGDIPEGYSVSREKKERFSLILESASTNQTSMYLCASSPGTSGTTYEQYFGPGTRLTVT | recognises | –
3 | hybrid TCR: 3BC6.6 TCRA with JS515.11 TCRB (TCR, V domains shown) Valpha: QSVTQLGSHVSVSEGALVLLRCNYSSSVPPYLFWYVQYPNQGLQLLLKYTSAATLVKGINGFEAEFKKSETSFHLTKPSAHMSDAAEYFCAVSEDTSYDKVIFGPGTSLSVIP Vbeta: DVKVTQSSRYLVKRTGEKVFLECVQDMDHENMFWYRQDPGLGLRLIYFSYDVEMKEKGDIPEGYSVSREKKERFSLILESASTNQTSMYLCASSPGTSGTTYEQYFGPGTRLTVT | no recognition | no recognition
4 | JS515.11 TCR with Gly-52 substituted with Ala in CDR2 of the alpha chain (TCR, V domains shown) Valpha: QSVTQLGSHVSVSEGALVLLRCNYSSSVPPYLFWYVQYPNQGLQLLLKYTTAATLVKGINGFEAEFKKSETSFHLTKPSAHMSDAAEYFCAVSEGGGSEKLVFGKGTKLTVNP Vbeta: DVKVTQSSRYLVKRTGEKVFLECVQDMDHENMFWYRQDPGLGLRLIYFSYDVEMKEKGDIPEGYSVSREKKERFSLILESASTNQTSMYLCASSPGTSGTTYEQYFGPGTRLTVT | recognises | –
5 | hybrid TCR: JS515.11 TCRA with 3BC6.6 TCRB (TCR, V domains shown) Valpha: QSVTQLGSHVSVSEGALVLLRCNYSSSVPPYLFWYVQYPNQGLQLLLKYTTGATLVKGINGFEAEFKKSETSFHLTKPSAHMSDAAEYFCAVSEGGGSEKLVFGKGTKLTVNP Vbeta: DVKVTQSSRYLVKRTGEKVFLECVQDMDHENMFWYRQDPGLGLRLIYFSYDVEMKEKGDIPEGYSVSREKKERFSLILESASTNQTSMYLCASSLTTSGYTFGSGTRLTVV | no recognition | no recognition
6 | 3BC6.6 TCR (TCR, V domains shown) Valpha: QSVTQLGSHVSVSEGALVLLRCNYSSSVPPYLFWYVQYPNQGLQLLLKYTSAATLVKGINGFEAEFKKSETSFHLTKPSAHMSDAAEYFCAVSEDTSYDKVIFGPGTSLSVIP Vbeta: DVKVTQSSRYLVKRTGEKVFLECVQDMDHENMFWYRQDPGLGLRLIYFSYDVEMKEKGDIPEGYSVSREKKERFSLILESASTNQTSMYLCASSLTTSGYTFGSGTRLTVV | no recognition | recognises
